We go through one substance from article PMC2062912.

This experiment addresses recombinant avidin (hen) (UniProt P02701). The experiment is described as follows: SEC + other: electrophoresis; purified renatured rec-AV alone; conditions not given; details referred to Shin et al, 1997.

The stoichiometry N is the number of molecules, sites or subunits per partner or assembly. As to “recombinant avidin (from UniProt P02701 25-152) (natural protein)”, the stoichiometry N came out at 4.
